Test [1] concerns the target recombinant HA (rHA), subtype H2 (A/Swine/MO/06 (H2N3)) (influenza A virus). The experiment in a line: ELISA, coated rHA.
In test [2] the target is recombinant HA (rHA), subtype H6 (A/teal/HK/W312/97(H6N1)) (influenza A virus). Description: ELISA, coated rHA. For orientation: In an ELISA, binding on a coated surface is turned into a signal by an enzyme label.
Test [3] has as its target recombinant HA (rHA), subtype H7 (A/Netherlands/219/03(H7N7)) (influenza A virus). Description: ELISA, coated rHA.
Test [4] has as its target recombinant HA (rHA), subtype H9 (A/chicken/HK/G9/97(H9N2)) (influenza A virus). Description: ELISA, coated rHA.
The target in test [5] is recombinant HA (rHA), subtype H5 (A/Vietnam/1203/04(H5N1)) (influenza A virus). The experiment in a line: ELISA, coated rHA.
Test [6] concerns the target recombinant HA (rHA), subtype H3 (A/Perth/16/09 (H3N2)) (influenza A virus). Description: ELISA, coated rHA.
Test [7] addresses His-tagged HA subtype H3 (A/Perth/16/09 (H3N2)) (influenza A virus). The experiment in a line: Octet BLI, His-tagged HA on anti-His sensors. A general note: Biolayer interferometry detects binding as a change in optical thickness at a sensor tip.
The target of test [8] is His-tagged HA subtype H1 (A/California/7/04 (H1N1)) (influenza A virus). Description: Octet BLI, His-tagged HA on anti-His sensors.

B1: Antibody 10 (antibody, V domains shown)
VH: QVQLQQSGPGLVKPSQTLSLTCAISGDSVSSNSATWNWIRQSPSRGLEWLGRTYYRSKWYNDYADFLKRRITINPDTSNNEVSLRLTSVTPDDTALYYCARGGHITVFGVNIDAFDVWGQGTMVTVSS
VL: DIQMTQSPSSLSASVGDRITISCRTSQSLRSYLHWYQQKPGKAPKLLIYASSTLQSGVPSRFSGSGSGTDFTLTISNLQPEDFATYYCQLSRTFGQGTKVEIK
Broadly, the EC50 is the concentration at which the effect is half-maximal. B1: the EC50 in test [1] came out at 0.075 µg/mL; in test [2], 0.097 µg/mL; in test [3], 0.034 µg/mL; in test [4], 2.7 µg/mL; in test [5] it was 0.058 µg/mL; in test [6], 0.049 µg/mL.

B2: Antibody 8 (antibody, V domains shown)
VH: QVQLQQSGPGLVKPSQTLSLTCVISGDTVSSNRATWNWMRQSPLRGLEWLGRTYYRSKWYNDYAVSVKSRVVINPDTSKNQVSLQLNTVTPDDSGVYFCARGGHITVFGVNIDAFDIWGLGTKVTVSS
VL: DIQMTQSPSSLSASVGDRVTISCRASQRLNSYLHWYQQTPGQAPKLLIYATSTLQSGVSPRFSGSGSGTDFTLTISSLQPEDVATYYCQLSRTFGHGTKVEIK
Consider B2, for which the EC50 in test [1] was 0.058 µg/mL; in test [2] it was 0.091 µg/mL; in test [3] it was 0.015 µg/mL; in test [4], above 6 µg/mL; in test [5], 0.044 µg/mL; in test [6] it was 0.067 µg/mL.

B3: Antibody 5 (antibody, V domains shown)
VH: QVQLQQSGPGLVKPSQTLSLTCAISGDRVSSNSAVWNWIRQSPSRGLEWLGRTYYRSKWYYDYAESVKSRIVIDPDTSKNQVSLQLNSVTPEDSAIYYCARGGHITVFGLNIDAYDIWGQGAMVTVSS
VL: DIQMTQSPSSLSASVGDRVTISCRAQSLSSYLHWYQQKPGQPPKLLIYAATTLQSGVPSRFSGSGSGTDFTLTISTFQAEDVATYYCQQSRTFGQGTKVEIK
A word on the Kd: it is the free concentration of one partner at which half of the binding sites on the other are occupied at equilibrium, for simple one-to-one binding. In general, koff refers to the rate constant with which the complex falls apart. For orientation: kon means a measure of how fast the partners come together. Higher therefore signals fast association. As for B3, the Kd in test [7] turned out to be 0.338 nM; in test [8], 0.005 nM. The off-rate constant (koff) in test [7] was 8.8e-05 s⁻¹; in test [8] it was below 5e-06 s⁻¹. Moreover, the kon in test [7] came to 260000 M⁻¹ s⁻¹; in test [8], 1e+06 M⁻¹ s⁻¹. Further, the 50% effective concentration (EC50) in test [1] is 0.048 µg/mL; in test [2] it was 0.047 µg/mL; in test [3], 0.024 µg/mL; in test [4], above 6 µg/mL; in test [5] it was 0.041 µg/mL; in test [6] it was 0.03 µg/mL.

B4: Antibody 6 (antibody, V domains shown)
VH: QVQLQQSGPGLVKPSQTLSLTCAISGDRVSSNSAVWNWIRQSPSRGLEWLGRTYYRSKWYYDYAESVKSRIVIDPDTSKNQVSLQLNSVTPEDSAIYYCARGGHITEFGLNIDAYDIWGQGAMVTVSS
VL: DIQMTQSPSSLSASVGDRVTISCRAQSLSSYLHWYQQKPGQPPKLLIYAATTLQSGVPSRFSGSGSGTDFTLTISTFQAEDVATYYCQQSRTFGQGTKVEIK
Take B4: the EC50 in test [1] is 0.213 µg/mL; in test [2], 0.214 µg/mL; in test [3], 0.116 µg/mL; in test [4], above 6 µg/mL; in test [5], 0.256 µg/mL; in test [6], 0.064 µg/mL.

The record behind these values is US20160257732A1.
